Results reported in EP4480965A1, “TRANSFERRIN RECEPTOR-BINDING MOLECULES, CONJUGATES THEREOF AND THEIR USES TO PREVENT OR TREAT CNS DISEASES” (Vect-Horus, priority 2023, dated 2024).
One block for each binder: values may come before it.

Tests used:
[1] = molecular target: murine TfR expressed by murine neuroblastoma Neuro-2a cells (mouse) (UniProt Q62351); test: cell-based or functional assay
[2] = molecular target: mouse transferrin receptor fused to EGFP, expressed on CHO cells (mouse) (UniProt Q62351); test: cell-based assay on mTfR, apparent Kd
Chain of mouse transferrin receptor fused to EGFP, expressed on CHO cells (mouse) (Q62351 whole entry, the tested form may be a part): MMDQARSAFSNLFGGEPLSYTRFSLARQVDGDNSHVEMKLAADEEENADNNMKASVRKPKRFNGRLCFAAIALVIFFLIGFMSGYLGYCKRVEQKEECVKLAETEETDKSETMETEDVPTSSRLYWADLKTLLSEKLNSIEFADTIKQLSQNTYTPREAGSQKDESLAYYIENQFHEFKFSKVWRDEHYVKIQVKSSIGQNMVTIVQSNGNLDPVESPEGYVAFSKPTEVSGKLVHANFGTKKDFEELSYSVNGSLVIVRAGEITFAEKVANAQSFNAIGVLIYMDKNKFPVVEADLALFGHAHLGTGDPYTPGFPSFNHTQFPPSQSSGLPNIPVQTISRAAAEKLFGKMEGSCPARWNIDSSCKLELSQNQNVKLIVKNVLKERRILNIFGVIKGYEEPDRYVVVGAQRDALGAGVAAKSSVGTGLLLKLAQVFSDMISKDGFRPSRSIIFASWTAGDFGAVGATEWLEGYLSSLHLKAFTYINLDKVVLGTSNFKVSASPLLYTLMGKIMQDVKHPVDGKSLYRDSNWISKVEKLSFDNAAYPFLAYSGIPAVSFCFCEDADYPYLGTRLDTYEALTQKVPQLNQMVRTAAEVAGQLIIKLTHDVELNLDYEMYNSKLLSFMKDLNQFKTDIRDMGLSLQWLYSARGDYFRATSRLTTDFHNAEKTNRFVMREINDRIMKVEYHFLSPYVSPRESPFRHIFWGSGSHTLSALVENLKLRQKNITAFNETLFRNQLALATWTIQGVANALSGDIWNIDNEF

Chain of murine TfR expressed by murine neuroblastoma Neuro-2a cells (mouse) (Q62351 whole entry, the tested form may be a part): as above

mean IC50 of mSOD1 mRNA downregulation, free uptake on Neuro-2a cells [1]: 8.7 nM
B1: C5-hFc-siSOD1m-5'VP (protein, part only; not given: Fc knob and hole arms, siRNA, part only)
chain, part: EVQLVESGGGVVQPGGSLKLSCVASGTDFSINFIRWYRQAPGKQREFVAGFTATGNTNYADSMKGRFTISRDNTKNAVYLQIDSLKPEDTAVYYCYMLDKWGQGTQVTVSSAAAEQKLISEEDLNGAAHHHHHHGS

Kd [2]: 2.8 nM
B2: B8h1-NT(8-13) (protein, part only; not given: nothing essential, part only)
chain, part: EVQLVESGGGVVQPGGSLRLSCAASGEIFSINFMRWYRQAPGKGLEWVAGFTRDGSTNYPDSVKGRFTISRDNAKNTVYLQMNSLRPEDTAVYYCYMLDTWGQGTQVTVSSHHHHHHGGGGSGGGGS
